From patent US20040180051A1 (published 2004) come the findings set out here.

Numbering of substitutions follows the chain as printed.

In assay [1] the target is T1, human tissue factor (human TF) on human bladder carcinoma cells J82 (human, UniProt P13726 33-295).
T1 construct: whole, on cells; Target of the cell ELISA; also called the antigen
As to the kind of experiment: cell ELISA on fixed J82 cells;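 further: measures antigen binding in a cell ELISA on J82 cells grown one day in 96-well plates and fixed with 4% paraformaldehyde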; reference antibody (CHO DG44 expressed). (In an ELISA, binding on a coated surface is turned into a signal by an enzyme label.)
Protocol: (§1) Cell ELISA plates for measurement of antigen binding were prepared as follows. Cells used were human bladder carcinoma cells J82 (ATCC HTB-1). To 60 wells of a 96-well cell culture plate, 1×10⁵ J82 cells were inoculated. This was cultured (RPMI1640 medium containing 10% fetal bovine serum (GIBCO)) for one day in a CO₂ incubator to allow the cells to be attached thereto. After discarding the culture liquid, each well was washed twice with 300 μl PBS. 100 μl of PBS containing 4% paraformaldehyde (hereinafter referred to as PFA/PBS) was added to each well, and placed on ice for 10 minutes to immobilize the cells.

Assay [2] concerns the target T1, human tissue factor (human TF) on human …. Nature of the assay: cell ELISA on fixed J82 cells.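 Further: measures antigen binding in a cell ELISA on J82 cells grown one day in 96-well plates and fixed with 4% paraformaldehyde.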
Protocol: as §1

B1: chimeric ATR-5 antibody (antibody, V domains shown)
VH: EVQLQQSGTNLVRPGALVKLSCKGSGFNIKDYYMHWVKQRPEQGLEWIGGNDPANGHSMYDPKFQGKASITADTSSNTAYLQLSSLTSEDTAVYFCARDSGYAMDYWGQGTSVTVSS
VL: DIKMTQSPSSMYASLGERVTITCKASQDIKSFLSWYQQKPWKSPKTLIYYATSLADGVPSRFSGSGSGQDYSLTINNLESDDTATYYCLQHGESPYTFGGGTKLEIK
notes: Mouse V regions on human C regions; also called ch-ch; chimeric antibody
Take B1: the binding result in assay [1] is on record as “binds”.

B2: humanized H chain version “c” combined with a chimeric L chain (antibody, V domains shown)
VH: QVQLLESGAVLARPGTSVKISCKASGFNIKDYYMHWVKQRPGQGLEWIGGNDPANGHSMYDPKFQGRVTMLVDTSKNQFSLRLSSVTAADTAVYYCARDSGYAMDYWGQGTLVTVSS
VL: B1 VL
notes: expressed in COS-7; also called c-ch
Turning to B2, the binding result in assay [2] is “binds”.

B3: humanized H chain version “j” combined with a chimeric L chain (antibody, V domains shown)
VH: QVQLLESGAVLARPGTSVKISCKASGFNIKDYYMHWVKQRPGQGLEWIGGNDPANGHSMYDPKFQGRVTFTADTSANTAYMELRSLRSADTAVYYCARDSGYAMDYWGQGTLVTVSS
VL: B1 VL
notes: expressed in COS-7; also called j-ch
B3: the binding result in assay [2] is recorded as “binds”.

B4: humanized H chain version “i” combined with a chimeric L chain (antibody, V domains shown)
VH: B3 VH with F70I, A76T, N77S, A79V, Y80F, R84S, A89E
VL: B1 VL
notes: expressed in COS-7; also called i-ch
With B4, the binding result in assay [2] was “binds”.

B5: humanized H chain version “a” combined with the humanized L chain version “a” (antibody, V domains shown)
VH: QVQLLESGAVLARPGTSVKISCKASGFNIKDYYMHWVKQRPGQGLEWIGGNDPANGHSMYDPKFQGRAKLTAATSASIAYLEFSSLTNEDSAVYYCARDSGYAMDYWGQGTLVTVSS
VL: DIQMTQSPSSLSASVGDRVTITCKASQDIKSFLSWYQQKPGKAPKLLIYYATSLADGVPSRFSGSGSGTDFTLTISSLQPEDFATYYCLQHGESPYTFGGGTKVEIK
notes: expressed in COS-7; also called a-a
As for B5, in assay [2], the binding result is given as “binds”.
